This passage reports Binding Reactivity (% WT) results from patent US20210147526A1.

For assay [1], the target named is ITGA7 mutant P980A on HEK-293T cells (human) (UniProt P05556). Kind of assay: high-throughput flow cytometry on HEK-293T cells with the ITGA7 alanine mutant, high stringency, normalized to wild type. On the technique in general: In flow cytometry, cells or beads pass a laser one at a time.
Assay [2] has as its target ITGA7 mutant S977A on HEK-293T cells (human) (UniProt P05556). The description is as above.

Chain of ITGA7 mutant S977A on HEK-293T cells (human) (chain, as listed by the source S977A S977A, chain 1 of 2): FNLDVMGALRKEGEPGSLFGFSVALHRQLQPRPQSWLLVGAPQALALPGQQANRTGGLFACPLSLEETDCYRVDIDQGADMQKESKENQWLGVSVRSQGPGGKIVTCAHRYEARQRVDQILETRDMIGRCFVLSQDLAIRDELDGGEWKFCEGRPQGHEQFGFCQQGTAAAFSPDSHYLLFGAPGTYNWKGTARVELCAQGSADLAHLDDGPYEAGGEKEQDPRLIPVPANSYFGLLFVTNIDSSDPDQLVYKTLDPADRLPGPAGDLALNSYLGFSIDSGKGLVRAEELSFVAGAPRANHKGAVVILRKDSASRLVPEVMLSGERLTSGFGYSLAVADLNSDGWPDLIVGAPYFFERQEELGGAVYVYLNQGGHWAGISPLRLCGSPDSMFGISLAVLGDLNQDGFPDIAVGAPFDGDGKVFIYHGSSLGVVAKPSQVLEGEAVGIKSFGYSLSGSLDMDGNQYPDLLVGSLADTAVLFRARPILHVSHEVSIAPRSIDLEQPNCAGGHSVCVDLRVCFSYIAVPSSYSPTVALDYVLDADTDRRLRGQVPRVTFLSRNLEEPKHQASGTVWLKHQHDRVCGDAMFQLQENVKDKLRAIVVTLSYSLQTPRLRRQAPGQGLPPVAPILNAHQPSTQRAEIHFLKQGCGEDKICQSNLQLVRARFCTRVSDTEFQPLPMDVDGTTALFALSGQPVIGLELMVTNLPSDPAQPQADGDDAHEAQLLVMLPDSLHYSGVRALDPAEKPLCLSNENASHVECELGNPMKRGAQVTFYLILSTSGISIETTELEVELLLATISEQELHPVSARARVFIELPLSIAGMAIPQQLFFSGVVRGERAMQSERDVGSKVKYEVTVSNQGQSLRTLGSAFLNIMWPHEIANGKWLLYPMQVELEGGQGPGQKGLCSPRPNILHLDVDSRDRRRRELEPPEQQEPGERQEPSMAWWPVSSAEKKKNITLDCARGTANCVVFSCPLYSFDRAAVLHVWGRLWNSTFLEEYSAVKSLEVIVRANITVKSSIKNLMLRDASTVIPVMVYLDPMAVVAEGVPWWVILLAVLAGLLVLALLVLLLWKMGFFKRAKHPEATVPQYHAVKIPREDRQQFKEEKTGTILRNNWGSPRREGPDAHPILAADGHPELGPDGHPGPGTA
Chain of ITGA7 mutant S977A on HEK-293T cells (human) (P05556 21-798, chain 2 of 2): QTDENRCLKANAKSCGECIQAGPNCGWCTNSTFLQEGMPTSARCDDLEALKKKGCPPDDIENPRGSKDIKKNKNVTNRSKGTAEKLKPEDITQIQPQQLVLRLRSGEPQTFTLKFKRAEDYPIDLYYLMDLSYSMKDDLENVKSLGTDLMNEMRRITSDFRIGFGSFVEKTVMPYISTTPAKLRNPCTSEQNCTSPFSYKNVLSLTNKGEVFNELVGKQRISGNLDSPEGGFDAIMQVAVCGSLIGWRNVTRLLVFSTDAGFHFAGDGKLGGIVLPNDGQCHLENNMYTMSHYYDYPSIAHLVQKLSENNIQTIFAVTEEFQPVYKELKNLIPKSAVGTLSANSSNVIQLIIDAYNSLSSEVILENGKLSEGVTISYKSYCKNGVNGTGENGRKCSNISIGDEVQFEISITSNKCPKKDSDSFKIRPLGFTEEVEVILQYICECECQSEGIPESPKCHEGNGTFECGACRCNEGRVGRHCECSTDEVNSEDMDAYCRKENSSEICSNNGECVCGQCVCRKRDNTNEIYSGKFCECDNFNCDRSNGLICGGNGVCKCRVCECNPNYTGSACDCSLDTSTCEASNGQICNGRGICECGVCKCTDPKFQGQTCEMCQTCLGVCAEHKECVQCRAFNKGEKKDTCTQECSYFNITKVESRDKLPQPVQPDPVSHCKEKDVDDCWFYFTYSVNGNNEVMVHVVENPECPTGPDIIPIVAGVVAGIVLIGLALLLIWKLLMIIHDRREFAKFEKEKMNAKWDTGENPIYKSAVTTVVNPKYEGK
Chain of ITGA7 mutant P980A on HEK-293T cells (human) (chain, as listed by the source P980A P980A, chain 1 of 2): as the sequence (chain, as listed by the source S977A S977A, chain 1 of 2) above, with A944S, P947A counted along it
Chain of ITGA7 mutant P980A on HEK-293T cells (human) (P05556 21-798, chain 2 of 2): as the sequence (P05556 21-798, chain 2 of 2) above

B1: VL3VHK20TFT Fab (Fab, V domains shown)
VH: QVQLVQSGAEVKKPGASVKVSCKASGYTFTKYWINWVRQAPGQGLEWMGIIYPGSSTSNYNEKFKTRVTMTVDTSTSTAYMELSSLRSEDTAVYYCVKNDNWGQGTLVTVSS
VL: DIQMTQSPSSLSASVGDRVTITCRASESVDNYGISFMNWFQQKPGKAPKLLIYAASDLGSGVPSRFSGSGSGTDFTLTISSLQPEDFATYYCHQSKEVPYTFGQGTKLEIK
As to B1, the Binding Reactivity (% WT) in assay [1] stood at 1.1 % WT; in assay [2], 8 % WT.
